Substrate in this data set: CNCC(=O)O
As to the kind of experiment: purified protein, by the assay type. The note with it: other: 37° C., pH 8.0.

B1: sarcosine oxidase (E.C.1.5.3.1) from Streptomyces sp. KB210-8SY (Streptomyces sp. KB210-8SY) (protein)
chain: SPTYDVIVIGLGGMGSAAAHHLSARGARVLGLEKFGPVHNRGSSHGGSRITRQSYFEDPAYVPLLLRAYELYEELERATGRNVATLCGGVMAGPPDSRTVSGSLRSATEWDLAHEMLDAKEIRRRFPTLAPDDDEVALFEAKAGLLRPENMVAAHLQLATRQGAELRFEEPVLRWEPYRDGVRVHTGENTYTAGQLVICPGAWAPQLLADIGVPITVERQIMYWFQPKGGTGPFVPERHPVYIWEDADGVQVYGFPAIDGPEKGAKVAFFRKGQHTTPETIDRTVHAHEVRAMADHMSALIPDLPGTFLKAATCMYSNTPDEHFVIARHPAHPESVTVACGFSGHGFKFVPVVGEILADLALTGATAHPIGLFDPARLTAPAARGVQP
By Km is commonly meant the concentration of substrate that gives half-maximal velocity. As to B1, the Km came out at 910 µM.
